One molecule from patent publication US20050002930A1 can be followed below.

The target of the test is α5β1 integrin on CD14+ blood monocytes of the dosed animals. Briefly: FACS occupancy on blood monocytes compared with serum levels of M200.

B1: M200 chimeric (mouse/human IgG4) anti-α5β1 integrin antibody (antibody, V domains shown)
VH: QVQLKESGPGLVAPSQSLSITCTISGFSLTDYGVHWVRQPPGKGLEWLVVIWSDGSSTYNSALKSRMTIRKDNSKSQVFLIMNSLQTDDSAMYYCARHGTYYGMTTTGDALDYWGQGTSVTVSS
VL: QIVLTQSPAIMSASLGERVTMTCTASSSVSSNYLHWYQQKPGSAPNLWIYSTSNLASGVPARFSGSGSGTSYSLTISSMEAEDAATYYCHQYLRSPPTFGGGTKLEIKR
The molecule B1 returned a serum concentration sufficient to completely saturate monocyte α5β1 integrin binding sites of 60 µg/mL.
